Measurements as given in paper PMC7023490, “An M29 Aminopeptidase from Listeria Monocytogenes Contributes to In Vitro Bacterial Growth but not to Intracellular Infection” (Microorganisms, 2020).

How the values were obtained:
Experiment in all cases: purified protein
Details in all cases: 25 mM Tris-HCl pH 7.4, 37 °C, 0.05 μM enzyme, no added metal mentioned
purified protein [1] = substrate: C[C@H](N)C(=O)Nc1ccc([N+](=O)[O-])cc1
purified protein [2] = substrate: NCCCC[C@H](N)C(=O)Nc1ccc([N+](=O)[O-])cc1
purified protein [3] = substrate: N=C(N)NCCC[C@H](N)C(=O)Nc1ccc([N+](=O)[O-])cc1
purified protein [4] = substrate: N[C@@H](Cc1ccccc1)C(=O)Nc1ccc([N+](=O)[O-])cc1
purified protein [5] = substrate: CC(C)C[C@H](N)C(=O)Nc1ccc([N+](=O)[O-])cc1

B1: LmAmpII (Listeria monocytogenes EGD-e) (protein)
chain: MTVFSEKLEKYAELIVKVGVNVQPEQKVVIMAPVDAAPLVRLISKYAFEVGAEDVIMDWRDEELGALRYKNAPLRVFESAPVHRVAEKTELAKEGACFISITSEDPDLLNGVDSNKIATFQKTMGGAMSEFRELMQANVVSWTVVAAASQGWAAKVFPDLTPAEQMETLWEAIFETTRINTENPVETWKNHDQTLAAKAESLNEKQFTSLHYTAPGTDLTIGLPKNHLWVGAGSKNKKGHEFMANMPTEEVFCCADKLKVEGYVSSTKPLSYAGNIIDDFKITFEKGRIVGVEAASGEEILKDLIATDEGSHYLGEVALVPDPSPISQSGILFYNTLFDENASNHLAIGSAYAFNVKGGEEMSREELEAAGVNNSLTHVDFMIGSSEMDIDGVTESGEVVPVFRKGDWAF
- Km (purified protein [1]): 340 µM
- Km (purified protein [2]): 165.6 µM
- Km (purified protein [3]): 24.94 µM
- Km (purified protein [4]): 399.6 µM
- Km (purified protein [5]): 95.62 µM
